Data set [1] concerns the target T1, neurofibromin EF fragment (1821–2818) (human, UniProt P21359-2 1821-2818).
T1 construct: neurofibromin, human, NF1 isoform 2 (NM_000267.3); residues 1821-2818; numbers count on: the 2818-residue isoform; TEV cleavage (ENLYFQ/G) probably leaves a G at the N-terminus; also called EF domain; EF(1821–2818); source: Tni-FNL insect cells (baculovirus), purified; not shown: His6, N-terminal, cleaved; MBP, N-terminal, cleaved
T1 sequence (looked up): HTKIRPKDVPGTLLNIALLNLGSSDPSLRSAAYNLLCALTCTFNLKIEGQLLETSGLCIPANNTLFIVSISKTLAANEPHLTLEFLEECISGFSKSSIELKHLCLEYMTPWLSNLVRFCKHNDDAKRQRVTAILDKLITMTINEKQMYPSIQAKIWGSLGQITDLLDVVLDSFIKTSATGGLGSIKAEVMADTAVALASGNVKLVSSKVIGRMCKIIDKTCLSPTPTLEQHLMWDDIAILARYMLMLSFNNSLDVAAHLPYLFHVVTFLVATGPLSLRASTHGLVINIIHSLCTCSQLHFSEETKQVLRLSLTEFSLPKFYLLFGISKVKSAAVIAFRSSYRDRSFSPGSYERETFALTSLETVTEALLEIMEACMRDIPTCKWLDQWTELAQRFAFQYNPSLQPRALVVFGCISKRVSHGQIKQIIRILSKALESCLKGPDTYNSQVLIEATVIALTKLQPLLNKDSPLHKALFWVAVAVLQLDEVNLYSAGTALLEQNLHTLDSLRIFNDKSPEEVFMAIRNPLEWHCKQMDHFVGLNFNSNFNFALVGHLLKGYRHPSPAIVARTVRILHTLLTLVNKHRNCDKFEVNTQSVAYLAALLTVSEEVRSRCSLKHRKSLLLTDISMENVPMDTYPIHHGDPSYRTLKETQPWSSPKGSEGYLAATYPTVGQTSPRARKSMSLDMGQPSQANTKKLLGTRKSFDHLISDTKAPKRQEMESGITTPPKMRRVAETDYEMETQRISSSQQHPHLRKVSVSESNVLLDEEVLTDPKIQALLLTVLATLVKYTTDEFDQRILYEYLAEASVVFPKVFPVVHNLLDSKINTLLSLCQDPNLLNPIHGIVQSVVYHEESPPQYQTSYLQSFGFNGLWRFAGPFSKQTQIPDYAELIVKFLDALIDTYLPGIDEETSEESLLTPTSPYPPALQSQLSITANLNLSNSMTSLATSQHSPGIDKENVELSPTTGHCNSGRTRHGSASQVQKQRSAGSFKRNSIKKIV
Description: SEC; equimolar mixtures of two purified NF1 fragments on an analytical SEC column, fractions analysed by SDS-PAGE. The note with it: both partners purified. A general note: SEC sorts molecules by how far they enter the pores of the column.

Data set [2] concerns the molecule itself. Description: AUC; sedimentation velocity of CDEF, 2.2 to 8.8 μM, 40,000 rpm, 20 °C, 300 mM NaCl, 20 mM HEPES-NaOH pH 7.3, 5 mM TCEP.
Data set [3] concerns the target T2, neurofibromin ABC fragment (2–1540) (human, UniProt P21359-2 2-1540).
T2 construct: neurofibromin, human, NF1 isoform 2 (NM_000267.3); numbers count on: the 2818-residue isoform; TEV cleavage (ENLYFQ/G) probably leaves a G at the N-terminus; also called NF1-ABC; source: Tni-FNL insect cells (baculovirus), purified; not shown: His6, N-terminal, cleaved; MBP, N-terminal, cleaved
The experiment in a line: SEC; equimolar mixtures of two purified NF1 fragments on an analytical SEC column, fractions analysed by SDS-PAGE. The note with it: both partners purified.

The results in this text go back to article PMC6983858, “Biochemical and structural analyses reveal that the tumor suppressor neurofibromin (NF1) forms a high-affinity dimer” (The Journal of Biological Chemistry, 2019).

As usually defined, the stoichiometry N is the number of molecules, sites or subunits per partner or assembly.

T2 sequence (P21359 other isoform, or with tags, fused parts or gaps): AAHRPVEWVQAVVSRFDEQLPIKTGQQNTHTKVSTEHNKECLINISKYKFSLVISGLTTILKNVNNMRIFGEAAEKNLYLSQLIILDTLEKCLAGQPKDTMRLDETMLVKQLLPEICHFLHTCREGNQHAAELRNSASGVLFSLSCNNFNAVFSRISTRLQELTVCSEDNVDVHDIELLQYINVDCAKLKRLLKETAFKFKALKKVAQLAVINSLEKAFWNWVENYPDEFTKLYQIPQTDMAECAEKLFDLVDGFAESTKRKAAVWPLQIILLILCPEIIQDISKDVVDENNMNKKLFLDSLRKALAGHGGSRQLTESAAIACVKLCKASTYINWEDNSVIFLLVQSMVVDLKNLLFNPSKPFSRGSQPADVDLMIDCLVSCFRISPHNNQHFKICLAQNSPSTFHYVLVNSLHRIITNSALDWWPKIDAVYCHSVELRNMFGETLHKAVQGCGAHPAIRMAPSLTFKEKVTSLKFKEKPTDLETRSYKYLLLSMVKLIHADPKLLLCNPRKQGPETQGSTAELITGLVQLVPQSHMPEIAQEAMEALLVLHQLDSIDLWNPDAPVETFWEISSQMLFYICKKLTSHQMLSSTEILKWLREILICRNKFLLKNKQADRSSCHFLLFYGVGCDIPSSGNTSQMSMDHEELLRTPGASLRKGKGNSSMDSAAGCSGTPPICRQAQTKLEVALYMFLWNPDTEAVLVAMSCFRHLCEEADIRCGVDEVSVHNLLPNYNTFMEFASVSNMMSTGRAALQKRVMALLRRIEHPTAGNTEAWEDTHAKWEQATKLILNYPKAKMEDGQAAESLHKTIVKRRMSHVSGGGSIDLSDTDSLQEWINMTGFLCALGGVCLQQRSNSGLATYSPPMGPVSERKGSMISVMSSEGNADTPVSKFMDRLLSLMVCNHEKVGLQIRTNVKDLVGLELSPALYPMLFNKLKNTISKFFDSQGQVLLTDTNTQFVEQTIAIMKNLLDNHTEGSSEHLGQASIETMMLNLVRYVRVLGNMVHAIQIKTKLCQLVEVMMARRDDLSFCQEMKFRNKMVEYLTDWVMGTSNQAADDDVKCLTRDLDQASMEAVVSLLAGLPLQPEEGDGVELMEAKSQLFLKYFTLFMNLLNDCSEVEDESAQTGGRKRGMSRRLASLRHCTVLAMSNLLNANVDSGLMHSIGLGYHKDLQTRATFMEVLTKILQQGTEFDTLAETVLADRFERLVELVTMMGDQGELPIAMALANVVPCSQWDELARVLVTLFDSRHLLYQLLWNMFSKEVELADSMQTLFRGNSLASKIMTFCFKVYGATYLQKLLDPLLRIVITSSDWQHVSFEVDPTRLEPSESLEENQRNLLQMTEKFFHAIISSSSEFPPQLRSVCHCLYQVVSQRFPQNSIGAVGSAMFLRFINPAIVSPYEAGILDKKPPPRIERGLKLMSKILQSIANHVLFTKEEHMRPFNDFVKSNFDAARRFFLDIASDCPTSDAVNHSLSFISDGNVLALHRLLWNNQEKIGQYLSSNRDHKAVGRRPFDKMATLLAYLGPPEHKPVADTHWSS

B1: neurofibromin C*D domain (1085–1816) (domain or fragment, human, UniProt P21359-2 1085-1816, looked up)
chain: LQPEEGDGVELMEAKSQLFLKYFTLFMNLLNDCSEVEDESAQTGGRKRGMSRRLASLRHCTVLAMSNLLNANVDSGLMHSIGLGYHKDLQTRATFMEVLTKILQQGTEFDTLAETVLADRFERLVELVTMMGDQGELPIAMALANVVPCSQWDELARVLVTLFDSRHLLYQLLWNMFSKEVELADSMQTLFRGNSLASKIMTFCFKVYGATYLQKLLDPLLRIVITSSDWQHVSFEVDPTRLEPSESLEENQRNLLQMTEKFFHAIISSSSEFPPQLRSVCHCLYQVVSQRFPQNSIGAVGSAMFLRFINPAIVSPYEAGILDKKPPPRIERGLKLMSKILQSIANHVLFTKEEHMRPFNDFVKSNFDAARRFFLDIASDCPTSDAVNHSLSFISDGNVLALHRLLWNNQEKIGQYLSSNRDHKAVGRRPFDKMATLLAYLGPPEHKPVADTHWSSLNLTSSKFEEFMTRHQVHEKEEFKALKTLSIFYQAGTSKAGNPIFYYVARRFKTGQINGDLLIYHVLLTLKPYYAKPYEIVVDLTHTGPSNRFKTDFLSKWFVVFPGFAYDNVSAVYIYNCNSWVREYTKYHERLLTGLKGSKRLVFIDCPGKLAEHIEHEQQKLPAATLALEEDLKVFHNALKLAHKDTKVSIKVGSTAVQVTSAERTKVLGQSVFLNDIYYASEIEEICLVDENQFTLTIANQGTPLTFMHQECEAIVQSIIHIRTRWELSQPD
notes: neurofibromin, human, NF1 isoform 2 (NM_000267.3); numbers count on: the 2818-residue isoform; TEV cleavage (ENLYFQ/G) probably leaves a G at the N-terminus; also called CD domains; source: Tni-FNL insect cells (baculovirus), purified; not shown: His6, N-terminal, cleaved; MBP, N-terminal, cleaved
On to B1, for which, in data set [1], the binding result is listed as “binds”.

B2: neurofibromin C* domain (1085–1530) (domain or fragment, human, UniProt P21359-2 1085-1530, looked up)
chain: LQPEEGDGVELMEAKSQLFLKYFTLFMNLLNDCSEVEDESAQTGGRKRGMSRRLASLRHCTVLAMSNLLNANVDSGLMHSIGLGYHKDLQTRATFMEVLTKILQQGTEFDTLAETVLADRFERLVELVTMMGDQGELPIAMALANVVPCSQWDELARVLVTLFDSRHLLYQLLWNMFSKEVELADSMQTLFRGNSLASKIMTFCFKVYGATYLQKLLDPLLRIVITSSDWQHVSFEVDPTRLEPSESLEENQRNLLQMTEKFFHAIISSSSEFPPQLRSVCHCLYQVVSQRFPQNSIGAVGSAMFLRFINPAIVSPYEAGILDKKPPPRIERGLKLMSKILQSIANHVLFTKEEHMRPFNDFVKSNFDAARRFFLDIASDCPTSDAVNHSLSFISDGNVLALHRLLWNNQEKIGQYLSSNRDHKAVGRRPFDKMATLLAYLGPPEH
notes: neurofibromin, human, NF1 isoform 2 (NM_000267.3); numbers count on: the 2818-residue isoform; TEV cleavage (ENLYFQ/G) probably leaves a G at the N-terminus; source: Tni-FNL insect cells (baculovirus), purified; not shown: His6, N-terminal, cleaved; MBP, N-terminal, cleaved
Take B2: the binding result in data set [1] was “binds”.

B3: neurofibromin CDEF fragment (861–2818) (domain or fragment, human, UniProt P21359-2 861-2818, looked up)
chain: ATYSPPMGPVSERKGSMISVMSSEGNADTPVSKFMDRLLSLMVCNHEKVGLQIRTNVKDLVGLELSPALYPMLFNKLKNTISKFFDSQGQVLLTDTNTQFVEQTIAIMKNLLDNHTEGSSEHLGQASIETMMLNLVRYVRVLGNMVHAIQIKTKLCQLVEVMMARRDDLSFCQEMKFRNKMVEYLTDWVMGTSNQAADDDVKCLTRDLDQASMEAVVSLLAGLPLQPEEGDGVELMEAKSQLFLKYFTLFMNLLNDCSEVEDESAQTGGRKRGMSRRLASLRHCTVLAMSNLLNANVDSGLMHSIGLGYHKDLQTRATFMEVLTKILQQGTEFDTLAETVLADRFERLVELVTMMGDQGELPIAMALANVVPCSQWDELARVLVTLFDSRHLLYQLLWNMFSKEVELADSMQTLFRGNSLASKIMTFCFKVYGATYLQKLLDPLLRIVITSSDWQHVSFEVDPTRLEPSESLEENQRNLLQMTEKFFHAIISSSSEFPPQLRSVCHCLYQVVSQRFPQNSIGAVGSAMFLRFINPAIVSPYEAGILDKKPPPRIERGLKLMSKILQSIANHVLFTKEEHMRPFNDFVKSNFDAARRFFLDIASDCPTSDAVNHSLSFISDGNVLALHRLLWNNQEKIGQYLSSNRDHKAVGRRPFDKMATLLAYLGPPEHKPVADTHWSSLNLTSSKFEEFMTRHQVHEKEEFKALKTLSIFYQAGTSKAGNPIFYYVARRFKTGQINGDLLIYHVLLTLKPYYAKPYEIVVDLTHTGPSNRFKTDFLSKWFVVFPGFAYDNVSAVYIYNCNSWVREYTKYHERLLTGLKGSKRLVFIDCPGKLAEHIEHEQQKLPAATLALEEDLKVFHNALKLAHKDTKVSIKVGSTAVQVTSAERTKVLGQSVFLNDIYYASEIEEICLVDENQFTLTIANQGTPLTFMHQECEAIVQSIIHIRTRWELSQPDSIPQHTKIRPKDVPGTLLNIALLNLGSSDPSLRSAAYNLLCALTCTFNLKIEGQLLETSGLCIPANNTLFIVSISKTLAANEPHLTLEFLEECISGFSKSSIELKHLCLEYMTPWLSNLVRFCKHNDDAKRQRVTAILDKLITMTINEKQMYPSIQAKIWGSLGQITDLLDVVLDSFIKTSATGGLGSIKAEVMADTAVALASGNVKLVSSKVIGRMCKIIDKTCLSPTPTLEQHLMWDDIAILARYMLMLSFNNSLDVAAHLPYLFHVVTFLVATGPLSLRASTHGLVINIIHSLCTCSQLHFSEETKQVLRLSLTEFSLPKFYLLFGISKVKSAAVIAFRSSYRDRSFSPGSYERETFALTSLETVTEALLEIMEACMRDIPTCKWLDQWTELAQRFAFQYNPSLQPRALVVFGCISKRVSHGQIKQIIRILSKALESCLKGPDTYNSQVLIEATVIALTKLQPLLNKDSPLHKALFWVAVAVLQLDEVNLYSAGTALLEQNLHTLDSLRIFNDKSPEEVFMAIRNPLEWHCKQMDHFVGLNFNSNFNFALVGHLLKGYRHPSPAIVARTVRILHTLLTLVNKHRNCDKFEVNTQSVAYLAALLTVSEEVRSRCSLKHRKSLLLTDISMENVPMDTYPIHHGDPSYRTLKETQPWSSPKGSEGYLAATYPTVGQTSPRARKSMSLDMGQPSQANTKKLLGTRKSFDHLISDTKAPKRQEMESGITTPPKMRRVAETDYEMETQRISSSQQHPHLRKVSVSESNVLLDEEVLTDPKIQALLLTVLATLVKYTTDEFDQRILYEYLAEASVVFPKVFPVVHNLLDSKINTLLSLCQDPNLLNPIHGIVQSVVYHEESPPQYQTSYLQSFGFNGLWRFAGPFSKQTQIPDYAELIVKFLDALIDTYLPGIDEETSEESLLTPTSPYPPALQSQLSITANLNLSNSMTSLATSQHSPGIDKENVELSPTTGHCNSGRTRHGSASQVQKQRSAGSFKRNSIKKIV
notes: neurofibromin, human, NF1 isoform 2 (NM_000267.3); residues 861-2818; numbers count on: the 2818-residue isoform; TEV cleavage (ENLYFQ/G) probably leaves a G at the N-terminus; also called NF1-CDEF; NF1(861–2818); source: Tni-FNL insect cells (baculovirus), purified; not shown: His6, N-terminal, cleaved; MBP, N-terminal, cleaved
Regarding B3, the “stoichiometry N” value in data set [2] stood at 2.

B4: neurofibromin DEF fragment (1541–2818) (domain or fragment, human, UniProt P21359-2 1541-2818, looked up)
chain: LNLTSSKFEEFMTRHQVHEKEEFKALKTLSIFYQAGTSKAGNPIFYYVARRFKTGQINGDLLIYHVLLTLKPYYAKPYEIVVDLTHTGPSNRFKTDFLSKWFVVFPGFAYDNVSAVYIYNCNSWVREYTKYHERLLTGLKGSKRLVFIDCPGKLAEHIEHEQQKLPAATLALEEDLKVFHNALKLAHKDTKVSIKVGSTAVQVTSAERTKVLGQSVFLNDIYYASEIEEICLVDENQFTLTIANQGTPLTFMHQECEAIVQSIIHIRTRWELSQPDSIPQHTKIRPKDVPGTLLNIALLNLGSSDPSLRSAAYNLLCALTCTFNLKIEGQLLETSGLCIPANNTLFIVSISKTLAANEPHLTLEFLEECISGFSKSSIELKHLCLEYMTPWLSNLVRFCKHNDDAKRQRVTAILDKLITMTINEKQMYPSIQAKIWGSLGQITDLLDVVLDSFIKTSATGGLGSIKAEVMADTAVALASGNVKLVSSKVIGRMCKIIDKTCLSPTPTLEQHLMWDDIAILARYMLMLSFNNSLDVAAHLPYLFHVVTFLVATGPLSLRASTHGLVINIIHSLCTCSQLHFSEETKQVLRLSLTEFSLPKFYLLFGISKVKSAAVIAFRSSYRDRSFSPGSYERETFALTSLETVTEALLEIMEACMRDIPTCKWLDQWTELAQRFAFQYNPSLQPRALVVFGCISKRVSHGQIKQIIRILSKALESCLKGPDTYNSQVLIEATVIALTKLQPLLNKDSPLHKALFWVAVAVLQLDEVNLYSAGTALLEQNLHTLDSLRIFNDKSPEEVFMAIRNPLEWHCKQMDHFVGLNFNSNFNFALVGHLLKGYRHPSPAIVARTVRILHTLLTLVNKHRNCDKFEVNTQSVAYLAALLTVSEEVRSRCSLKHRKSLLLTDISMENVPMDTYPIHHGDPSYRTLKETQPWSSPKGSEGYLAATYPTVGQTSPRARKSMSLDMGQPSQANTKKLLGTRKSFDHLISDTKAPKRQEMESGITTPPKMRRVAETDYEMETQRISSSQQHPHLRKVSVSESNVLLDEEVLTDPKIQALLLTVLATLVKYTTDEFDQRILYEYLAEASVVFPKVFPVVHNLLDSKINTLLSLCQDPNLLNPIHGIVQSVVYHEESPPQYQTSYLQSFGFNGLWRFAGPFSKQTQIPDYAELIVKFLDALIDTYLPGIDEETSEESLLTPTSPYPPALQSQLSITANLNLSNSMTSLATSQHSPGIDKENVELSPTTGHCNSGRTRHGSASQVQKQRSAGSFKRNSIKKIV
notes: neurofibromin, human, NF1 isoform 2 (NM_000267.3); numbers count on: the 2818-residue isoform; TEV cleavage (ENLYFQ/G) probably leaves a G at the N-terminus; also called NF1-DEF; source: Tni-FNL insect cells (baculovirus), purified; not shown: His6, N-terminal, cleaved; MBP, N-terminal, cleaved
With B4, the binding result in data set [3] is recorded as “binds”.
